Drawing on publication PMC2896269, this text covers Kd for 2 substances.

Where “and” joins values, the source holds several entries; their conditions need not be identical. Equal entries are not always repeated.

As a reminder, the Kd is the constant that tells how readily two partners part at equilibrium.

Test [1] has as its target LRRTM2 (UniProt O43300). The note with it: cited from earlier work.
For test [2], the target named is HA-LRRTM2 (UniProt Q8BGA3). Briefly: immunostaining of cells or tissue.
Sequence of HA-LRRTM2 (Q8BGA3 34-515): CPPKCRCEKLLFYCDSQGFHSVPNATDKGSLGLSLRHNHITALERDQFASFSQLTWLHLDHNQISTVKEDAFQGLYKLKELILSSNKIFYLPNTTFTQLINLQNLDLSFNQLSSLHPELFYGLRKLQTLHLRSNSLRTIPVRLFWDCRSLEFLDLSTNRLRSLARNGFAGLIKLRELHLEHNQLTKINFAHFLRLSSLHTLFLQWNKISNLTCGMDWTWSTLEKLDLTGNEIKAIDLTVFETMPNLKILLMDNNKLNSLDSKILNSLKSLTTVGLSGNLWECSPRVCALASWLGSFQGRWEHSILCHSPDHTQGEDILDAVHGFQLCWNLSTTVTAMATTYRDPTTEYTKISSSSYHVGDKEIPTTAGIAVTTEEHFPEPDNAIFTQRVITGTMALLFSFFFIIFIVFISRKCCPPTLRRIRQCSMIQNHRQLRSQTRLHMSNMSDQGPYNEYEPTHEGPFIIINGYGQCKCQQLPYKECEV

Sequence of Neurexin-1beta(-S4) (P58400 91-289): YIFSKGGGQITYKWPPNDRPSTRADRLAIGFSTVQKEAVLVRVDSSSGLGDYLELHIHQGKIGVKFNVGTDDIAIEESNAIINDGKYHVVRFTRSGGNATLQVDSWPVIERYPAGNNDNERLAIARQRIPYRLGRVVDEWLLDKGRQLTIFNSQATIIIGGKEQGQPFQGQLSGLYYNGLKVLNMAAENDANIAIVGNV
Sequence of LRRTM2 (O43300 34-422): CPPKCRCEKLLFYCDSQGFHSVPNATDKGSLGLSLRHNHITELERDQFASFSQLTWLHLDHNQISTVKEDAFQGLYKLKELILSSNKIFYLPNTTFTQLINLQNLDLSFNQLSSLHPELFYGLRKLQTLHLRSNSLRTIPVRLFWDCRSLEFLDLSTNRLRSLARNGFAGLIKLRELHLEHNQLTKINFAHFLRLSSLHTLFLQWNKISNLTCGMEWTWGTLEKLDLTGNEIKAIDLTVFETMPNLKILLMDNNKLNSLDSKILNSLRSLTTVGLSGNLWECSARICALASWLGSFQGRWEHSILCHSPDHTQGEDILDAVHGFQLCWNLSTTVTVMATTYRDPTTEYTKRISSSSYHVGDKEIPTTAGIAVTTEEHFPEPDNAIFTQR

In the case of “Neurexin-1beta(-S4) (from UniProt P58400)”, in test [1], the Kd was 7 nM and 5.8 nM.

In test [2], Nrx1β(−S4)-Fc (Fc fusion) registered a Kd of 19.9 nM.
